The values below are quoted from earlier work in US7468440B2, “Malonamides and malonamide derivatives as modulators of chemokine receptor activity” (Bristol-Myers Squibb Company, priority 2003, dated 2008).

For the series, the system named is MCP-1 expression. The following applies: human multiple sclerosis, effective therapy.

B1: interferon b-1b: interferon b-1b, effective therapy in human multiple sclerosis (protein, UniProt P01574 22-187, looked up, variant C17S)
Interferon beta: MSYNLLGFLQRSSNFQSQKLLWQLNGRLEYCLKDRMNFDIPEEIKQLQQFQKEDAALTIYEMLQNIFAIFRQDSSSTGWNETIVENLLANVYHQINHLKTVLEEKLEKEDFTRGKLMSSLHLKRYYGRILHYLKAKEYSHCAWTIVRVEILRNFYFINRLTGYLRN
modifications: interferon beta-1b
B1: the “effect on MCP-1 expression in peripheral blood mononuclear cells” value is “reduces MCP-1 expression”.
